Measurements published in the supplement of paper PMC9233669.
Fewer inactive variants are shown than the library holds.

Experiments:
[1] = test system: biotinyl-Phe-oxazolone; assay: self-aminoacylation, catalytic enhancement (BFO) (fold over background); higher = more active; k-Seq, kA / k0A0; sequences stand for … in GGGAAUGGAUCCACAUCUACGAAUUC…UUCACUGCAGACUUGACGAAGCUG
Method in brief: (§1)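 Working in 50 μL HEPES/NaCl/KCl/MgCl2/CaCl2 buffer with 5% acetonitrile at pH 6.9–7.0, mutagenized RNA pools (0.43 μM; 21-nt variable region) were reacted with 2–1250 μM of each biotinyl-aminoacyl-oxazolone for 90 minutes at room temperature. Streptavidin capture followed, with quantification by triplicate qPCR and Illumina sequencing. Catalytic enhancement is reported as median kA over the uncatalyzed rate, the low-activity peak of a bimodal Gaussian fit to the data.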

[2] = test system: biotinyl-Ile-oxazolone; assay: self-aminoacylation, catalytic enhancement (BIO) (fold over background); higher = more active; k-Seq, kA / k0A0; sequences stand for … in GGGAAUGGAUCCACAUCUACGAAUUC…UUCACUGCAGACUUGACGAAGCUG
Method in brief: as §1

[3] = test system: biotinyl-Met-oxazolone; assay: self-aminoacylation, catalytic enhancement (BMO) (fold over background); higher = more active; k-Seq, kA / k0A0; sequences stand for … in GGGAAUGGAUCCACAUCUACGAAUUC…UUCACUGCAGACUUGACGAAGCUG
Method in brief: as §1

[4] = test system: biotinyl-Val-oxazolone; assay: self-aminoacylation, catalytic enhancement (BVO) (fold over background); higher = more active; k-Seq, kA / k0A0; sequences stand for … in GGGAAUGGAUCCACAUCUACGAAUUC…UUCACUGCAGACUUGACGAAGCUG
Method in brief: as §1

[5] = test system: biotinyl-Leu-oxazolone; assay: self-aminoacylation, catalytic enhancement (BLO) (fold over background); higher = more active; k-Seq, kA / k0A0; sequences stand for … in GGGAAUGGAUCCACAUCUACGAAUUC…UUCACUGCAGACUUGACGAAGCUG
Method in brief: as §1

[6] = test system: biotinyl-Trp-oxazolone; assay: self-aminoacylation, catalytic enhancement (BWO) (fold over background); higher = more active; k-Seq, kA / k0A0; sequences stand for … in GGGAAUGGAUCCACAUCUACGAAUUC…UUCACUGCAGACUUGACGAAGCUG
Method in brief: as §1

Sequence	self-aminoacylation [1]	self-aminoacylation [2]	self-aminoacylation [3]	self-aminoacylation [4]	self-aminoacylation [5]	self-aminoacylation [6]
CCACACUUCAAGCCAUCGUUC [Fam1B.1 aminoacylation ribozyme variant]	0.848	1.08	1.03	1.35	1.24	0.897
GUUGACCUAGGUCAUCGGGUG [Fam2.2 aminoacylation ribozyme variant]	20	4.11	3.52	3.67	5.05	5.59
CCACACAUCAAGCUAUCGGUC [Fam1B.1 aminoacylation ribozyme variant]	0.819	0.954	0.888	1.15	0.914	0.735
AUUCCCCUAGGUCAUCGUGUG [Fam2.2 aminoacylation ribozyme variant]	20.7	3.28	3.02	4.25	4.37	4.05
CUUCACCUACGUCAUCGGGUG [Fam2.2 aminoacylation ribozyme variant]	37.8	3.06	5.1	3.69	5.63	4.58
UGGUUUGCUAAUAGUCGCAAG [Fam3.1 aminoacylation ribozyme variant]	8.93	1.81	1.88	1.51	1.58	4.47
GUUCACCUGGGUCAUCGGGUG [Fam2.2 aminoacylation ribozyme variant]	39.4	4.47	5.48	5.58	5.35	8.32
UAGUUUGCUAGUAGUCGCAAG [Fam3.1 aminoacylation ribozyme variant]	1.53	1.09	1.17	0.974	1.1	0.854
AUUCACCUAGGUCUUCGGGUA [Fam2.2 aminoacylation ribozyme variant]	17.4	3.31	3.75	3.6	3.22	3.79
CUUACCCUGGUCAUCGCGUGA [Fam2.1 aminoacylation ribozyme variant]	148	7.79	18.7	10.9	18.9	18.5
CCACACUUCAACCAAGCGGUC [Fam1B.1 aminoacylation ribozyme variant]	0.838	0.95	0.914	1.08	0.761	0.613
AUUACCCAGGUCAUCGAGUGG [Fam2.1 aminoacylation ribozyme variant]	0.937	1.14	1.07	1.22	1.3	0.735
AAGUGUCCUAAUAGUCGCAAG [Fam3.1 aminoacylation ribozyme variant]	0.985	1.18	0.945	0.995	0.952	0.664
CCACACUUCAAGCGAUCGGUA [Fam1B.1 aminoacylation ribozyme variant]	1.73	1.22	1.48	2.2	1.58	0.843
AUUCACUUAGGUCAUCGGGCG [Fam2.2 aminoacylation ribozyme variant]	4.38	2.55	3.18	3.17	4.02	3.91
CCACCCUUGAAGCAAUCGGUC [Fam1B.1 aminoacylation ribozyme variant]	0.764	1	0.972	1.74	1.12	1.34
CAACACUUCAAGCAAUCCGUC [Fam1B.1 aminoacylation ribozyme variant]	1.12	1.24	1.19	1.31	1.02	0.727
AUGCACCUAAGUCAUCGGGUG [Fam2.2 aminoacylation ribozyme variant]	58.2	5.66	8.76	4.84	10.5	8.67
CCACACUUCAAGCGAGCGGUC [Fam1B.1 aminoacylation ribozyme variant]	0.929	0.983	0.603	1.11	0.93	0.744
CAGUUAGCUAAUAGUCGCAAG [Fam3.1 aminoacylation ribozyme variant]	1.67	1.21	1.17	1.32	1.04	0.96
CUACUUCAAACAGUUGGUCUG [Fam1A.1 aminoacylation ribozyme variant]	0.982	0.893	0.538	0.736	0.79	0.595
AAUCACCUAGGUCAUCGGGCG [Fam2.2 aminoacylation ribozyme variant]	7.85	3.35	4.05	2.77	4.1	3.94
AGGCUUGCUAAUAGUCGCAAG [Fam3.1 aminoacylation ribozyme variant]	3.69	2.17	2.14	1.96	2.31	2.08
ACUACCUUGGUCAUCGAGUGA [Fam2.1 aminoacylation ribozyme variant]	10.5	2.96	3.77	3.23	4.02	5.82
UUUCACCUAGGUCAUCGGGUA [Fam2.2 aminoacylation ribozyme variant]	184	14.7	27.4	13.9	36.1	21.2
AUUCACGUAGGUCAUGGGGUG [Fam2.2 aminoacylation ribozyme variant]	24.6	3.34	3.45	4.23	5.48	4.5

Sequence	self-aminoacylation [1]	self-aminoacylation [2]	self-aminoacylation [3]	self-aminoacylation [4]	self-aminoacylation [5]	self-aminoacylation [6]
AAGUUUGCAAAGAGUCGCAAG [Fam3.1 aminoacylation ribozyme variant]	1.41	0.841	0.929	0.832	0.949	1.54
AUUACCCUGGUCAUUUAGUGA [Fam2.1 aminoacylation ribozyme variant]	70	5.57	11.7	5.82	11.1	14.4
AUUCACCAAGGUUAUCGGGUG [Fam2.2 aminoacylation ribozyme variant]	63.7	4.45	7.8	4.4	8.94	6.57
CCACUUCAAACAAUCGGUCCG [Fam1A.1 aminoacylation ribozyme variant]	38.5	1.08	1.18	1.49	1.59	16.8
AUUCACCUAGGUCUUCGGCUG [Fam2.2 aminoacylation ribozyme variant]	6.94	2.12	1.8	1.87	2.59	1.46
AUUCACCUAGGACGUCGGGUG [Fam2.2 aminoacylation ribozyme variant]	9.18	1.66	1.91	1.88	1.91	1.42
AUUCAUCUUGGUCAUCGGGUG [Fam2.2 aminoacylation ribozyme variant]	50.1	4.97	7.46	4.56	9.58	7.39
CUACUUCAAACAGUCGCUCUG [Fam1A.1 aminoacylation ribozyme variant]	1.68	1.12	1.45	1.25	1.75	1.09
AUUCACCUUGCUCAUCGGGUG [Fam2.2 aminoacylation ribozyme variant]	10.7	1.84	1.94	2	2.63	2.01
AAGUUGGCUCAUAGUCGCAAG [Fam3.1 aminoacylation ribozyme variant]	2.43	1.8	1.71	1.88	1.99	2.44
CCACACGUCAAGCAAACGGUC [Fam1B.1 aminoacylation ribozyme variant]	0.465	0.784	0.86	1.37	0.809	0.619
AUUCGCCCAGGUCAUCGGGUG [Fam2.2 aminoacylation ribozyme variant]	42	4.14	4.75	3.96	6.46	5.2
CUACUUUAAACAAUCGGUCGG [Fam1A.1 aminoacylation ribozyme variant]	0.521	0.945	1.08	0.911	0.963	0.769
AUUACACUGGUCAUCGAGUGU [Fam2.1 aminoacylation ribozyme variant]	2.05	1.73	2.61	1.66	2.47	3.07
GUUACCCUGGUCAUCGAGUGA [Fam2.1 aminoacylation ribozyme variant]	747	35.2	99	38.3	100	101
CUACUUCAAACAAUCAUUCUG [Fam1A.1 aminoacylation ribozyme variant]	3.72	0.616	0.488	0.577	0.513	1.55
CCACACUUCAUGCAAUCGGUG [Fam1B.1 aminoacylation ribozyme variant]	27	2.55	4.27	2.65	5.5	4.65
UAGUUUACUAAUAGUCGCAAG [Fam3.1 aminoacylation ribozyme variant]	2.86	1.45	1.41	1.48	1.36	1.65
CCACACAUCAAGCAGUCGGUC [Fam1B.1 aminoacylation ribozyme variant]	0.847	0.93	0.686	1.05	0.799	0.457
CUACUUCAAACAAUCGUUAUG [Fam1A.1 aminoacylation ribozyme variant]	0.899	0.683	0.48	0.627	0.523	0.59
AUUAUCCUGGUCAACGAGUGA [Fam2.1 aminoacylation ribozyme variant]	30.1	3.69	6.62	3.87	8.02	7.67
CUACUUCAAACAGUCGUUCUG [Fam1A.1 aminoacylation ribozyme variant]	0.701	0.579	0.589	0.611	0.475	0.472
CUACUUCAAAGAAUCGGACUG [Fam1A.1 aminoacylation ribozyme variant]	1.29	0.992	0.91	0.808	0.818	0.932
GUUACCCUGGUCAUCGAGUGC [Fam2.1 aminoacylation ribozyme variant]	33.8	4.28	12.9	4.94	13	9.64
CUUACCCUGGUCAUGGAGUGA [Fam2.1 aminoacylation ribozyme variant]	10.1	2.16	3.59	2.21	3.74	4.01
